We go through five sequences from the supplement of paper PMC11246515.

± gives the standard deviation of the averaged measurements.

A short description of the data set: total protein half-life in vivo (active degradation + dilution); higher = more stable protein.
Where [1] appears, read: E. coli NCM3722 delta-clpP delta-lon delta-hslV, growth: N-lim chemostat, doubling time 6 h.
[2] abbreviates: E. coli NCM3722 delta-clpP, growth: N-lim chemostat, doubling time 6 h.
Setting [3] is: E. coli NCM3722 delta-hslV, growth: N-lim chemostat, doubling time 6 h.
[4] abbreviates: E. coli NCM3722 delta-lon, growth: N-lim chemostat, doubling time 6 h.
Setting [5] is: E. coli NCM3722 delta-smpB, growth: N-lim chemostat, doubling time 6 h.
Setting [6] is: wild type E. coli NCM3722, growth: C-lim chemostat, doubling time 3 h.
Where [7] appears, read: wild type E. coli NCM3722, growth: C-lim chemostat, doubling time 6 h.
[8] abbreviates: wild type E. coli NCM3722, growth: C-lim chemostat, doubling time 12 h.
Setting [9] is: wild type E. coli NCM3722, growth: N-lim chemostat, doubling time 6 h.
The mark [10] stands for this setting: wild type E. coli NCM3722, growth: N-lim chemostat, doubling time 12 h.
Where [11] appears, read: wild type E. coli NCM3722, growth: P-lim chemostat, doubling time 6 h.
The mark [12] stands for this setting: wild type E. coli NCM3722, growth: P-lim chemostat, doubling time 12 h.

As to “MSKPIVMERGVKYRDADKMALIPVKNVATEREALLRKPEWMKIKLPADSTRIQGIKAAMRKNGLHSVCEEASCPNLAECFNHGTATFMILGAICTRRCPFCDVAHGRPVAPDANEPVKLAQTIADMALRYVVITSVDRDDLRDGGAQHFADCITAIREKSPQIKIETLVPDFRGRMDRALDILTATPPDVFNHNLENVPRIYRQVRPGADYNWSLKLLERFKEAHPEIPTKSGLMVGLGETNEEIIEVMRDLRRHGVTMLTLGQYLQPSRHHLPVQRYVSPDEFDEMKAEALAMGFTHAACGPFVRSSYHADLQAKGMEVK”, the “total protein half-life in vivo” value runs as follows: under setting [1], 5.22 ± 1 h; under setting [2], 1.56 ± 0.071 h; under setting [3], 1.64 ± 0.38 h; under setting [4], 1.84 ± 0.034 h; under setting [5], 1.27 ± 0.14 h; under setting [6], 1.23 ± 0.056 h. Moreover, the “total protein half-life in vivo” value is 1.93 ± 0.095 h under setting [7]; 2.47 ± 0.21 h under setting [8]; 1.67 ± 0.095 h under setting [9]; 2.4 ± 0.28 h under setting [10]; 1.74 ± 0.22 h under setting [11]; 3.3 ± 0.49 h under setting [12].

In the case of “MAKNYYDITLALAGICQSARLVQQLAHQGHCDADALHVSLNSIIDMNPSSTLAVFGGSEANLRVGLETLLGVLNASSRQGLNAELTRYTLSLMVLERKLSSAKGALDTLGNRINGLQRQLEHFDLQSETLMSAMAAIYVDVISPLGPRIQVTGSPAVLQSPQVQAKVRATLLAGIRAAVLWHQVGGGRLQLMFSRNRLTTQAKQILAHLTPEL”, the “total protein half-life in vivo” value came to 6.52 ± 1.1 h under setting [1]; 5.78 ± 0.42 h under setting [2]; 6.17 ± 0.66 h under setting [3]; 5.23 ± 0.89 h under setting [4]; 6 ± 0.18 h under setting [5]; 3.36 ± 0.65 h under setting [6]. The “total protein half-life in vivo” value under setting [7] came to 5.87 ± 0.23 h; the “total protein half-life in vivo” value under setting [8] turned out to be 12.2 ± 2.8 h; the “total protein half-life in vivo” value under setting [9] turned out to be 5.449 ± 0.017 h; the “total protein half-life in vivo” value under setting [10] was found to be 10.6 ± 0.7 h; the “total protein half-life in vivo” value under setting [11] is 6.04 ± 0.18 h; the “total protein half-life in vivo” value under setting [12] is 13.2 ± 0.51 h.

Turning to “MSFDIAKYPTLALVDSTQELRLLPKESLPKLCDELRRYLLDSVSRSSGHFASGLGTVELTVALHYVYNTPFDQLIWDVGHQAYPHKILTGRRDKIGTIRQKGGLHPFPWRGESEYDVLSVGHSSTSISAGIGIAVAAEKEGKNRRTVCVIGDGAITAGMAFEAMNHAGDIRPDMLVILNDNEMSISENVGALNNHLAQLLSGKLYSSLREGGKKVFSGVPPIKELLKRTEEHIKGMVVPGTLFEELGFNYIGPVDGHDVLGLITTLKNMRDLKGPQFLHIMTKKGRGYEPAEKDPITFHAVPKFDPSSGCLPKSSGGLPSYSKIFGDWLCETAAKDNKLMAITPAMREGSGMVEFSRKFPDRYFDVAIAEQHAVTFAAGLAIGGYKPIVAIYSTFLQRAYDQVLHDVAIQKLPVLFAIDRAGIVGADGQTHQGAFDLSYLRCIPEMVIMTPSDENECRQMLYTGYHYNDGPSAVRYPRGNAVGVELTPLEKLPIGKGIVKRRGEKLAILNFGTLMPEAAKVAESLNATLVDMRFVKPLDEALILEMAASHEALVTVEENAIMGGAGSGVNEVLMAHRKPVPVLNIGLPDFFIPQGTQEEMRAELGLDAAGMEAKIKAWLA”, the “total protein half-life in vivo” value runs as follows: under setting [1], 5.82 ± 0.5 h; under setting [2], 6.08 ± 0.29 h; under setting [3], 5.79 ± 0.18 h; under setting [4], 5.92 ± 0.57 h; under setting [5], 5.36 ± 0.085 h; under setting [6], 3.01 ± 0.11 h. Besides, the “total protein half-life in vivo” value reads like this: under setting [7], 6.16 ± 0.82 h; under setting [8], 10.7 ± 1.4 h; under setting [9], 5.82 ± 0.11 h; under setting [10], 13.6 ± 0.63 h; under setting [11], 6.55 ± 0.58 h; under setting [12], 12.6 ± 0.56 h.

Consider “MKKLLRLFFPLSLRVRFLLATAAVVLVLSLAYGMVALIGYSVSFDKTTFRLLRGESNLFYTLAKWENNKLHVELPENIDKQSPTMTLIYDENGQLLWAQRDVPWLMKMIQPDWLKSNGFHEIEADVNDTSLLLSGDHSIQQQLQEVREDDDDAEMTHSVAVNVYPATSRMPKLTIVVVDTIPVELKSSYMVWSWFIYVLSANLLLVIPLLWVAAWWSLRPIEALAKEVRELEEHNRELLNPATTRELTSLVRNLNRLLKSERERYDKYRTTLTDLTHSLKTPLAVLQSTLRSLRSEKMSVSDAEPVMLEQISRISQQIGYYLHRASMRGGTLLSRELHPVAPLLDNLTSALNKVYQRKGVNISLDISPEISFVGEQNDFVEVMGNVLDNACKYCLEFVEISARQTDEHLYIVVEDDGPGIPLSKREVIFDRGQRVDTLRPGQGVGLAVAREITEQYEGKIVAGESMLGGARMEVIFGRQHSAPKDE”, for which the “total protein half-life in vivo” value by setting is: under setting [1], 7.01 ± 1.1 h; under setting [2], 6.22 ± 0.32 h; under setting [3], 5.85 ± 0.59 h; under setting [4], 6.87 ± 1.1 h; under setting [5], 6.02 ± 0.93 h; under setting [6], 3.26 ± 0.4 h. Also, the “total protein half-life in vivo” value came to 5.936 ± 0.044 h under setting [7]; 10.2 ± 1.2 h under setting [8]; 6.046 ± 0.045 h under setting [9]; 12.5 ± 0.13 h under setting [10]; 6.36 ± 0.37 h under setting [11]; 13.5 ± 1.9 h under setting [12].

Turning to “MQTQLTEEMRQNARALEADSILRACVHCGFCTATCPTYQLLGDELDGPRGRIYLIKQVLEGNEVTLKTQEHLDRCLTCRNCETTCPSGVRYHNLLDIGRDIVEQKVKRPLPERILREGLRQVVPRPAVFRALTQVGLVLRPFLPEQVRAKLPAETVKAKPRPPLRHKRRVLMLEGCAQPTLSPNTNAATARVLDRLGISVMPANEAGCCGAVDYHLNAQEKGLARARNNIDAWWPAIEAGAEAILQTASGCGAFVKEYGQMLKNDALYADKARQVSELAVDLVELLREEPLEKLAIRGDKKLAFHCPCTLQHAQKLNGEVEKVLLRLGFTLTDVPDSHLCCGSAGTYALTHPDLARQLRDNKMNALESGKPEMIVTANIGCQTHLASAGRTSVRHWIEIVEQALEKE”, the “total protein half-life in vivo” value under setting [3] is 1.54 h; the “total protein half-life in vivo” value under setting [4] came to 2.63 ± 0.16 h; the “total protein half-life in vivo” value under setting [5] amounted to 1.29 ± 0.16 h; the “total protein half-life in vivo” value under setting [6] turned out to be 1.33 ± 0.28 h; the “total protein half-life in vivo” value under setting [7] stood at 2.42 ± 0.12 h; the “total protein half-life in vivo” value under setting [8] amounted to 4.17 ± 0.18 h. Besides, the “total protein half-life in vivo” value by setting is: under setting [10], 2.2136 ± 0.00075 h; under setting [11], 2.14 h; under setting [12], 4.65 ± 0.33 h.
